From US20240343823A1 (Ablynx, published 2024)
Where two headings read alike, the source gives them in different places.

B1: A022600172 (other)
chain: DVQLVESGGGVVQPGGSLRLSCVASGYVHKINFYGWYRQAPGKEREKVAHISIGDQTDYADSAKGRFTISRDESKNTVYLQMNSLRPEDTAAYYCRALSRIWPYDYWGQGTLVTVSSGGGGSEVQLVESGGGLVQPGGSLRLSCVASGFTFSSFAMTWVRRPPGKGLEWVATITNGGVTSYRDSVKGRFTISRDNAKNTLYLEMTSLNPEDTAVYICANARRTGPRAPTDIGSYRGQGTLVTVSSGGGGSGGGSEVQLVESGGGVVQPGGSLRLSCAASGFTFRSFGMSWVRQAPGKGPEWVSSISGSGSDTLYADSVKGRFTISRDNSKNTLYLQMNSLRPEDTALYYCTIGGSLSRSSQGTLVTVSSGGGGSGGGSEVQLVESGGGLVQPGGSLRLSCVASGSIFRSVFSSSTMEWYRQPPGKKRELVARIAPGDGTNYGALYADSVKGRFTISRDDAKKTVDLQMNSLKPEDTGVYFCASGVAWGQGTLVTVSSA
B2: A022600412 (other)
chain: DVQLVESGGGVVQPGGSLRLSCVASGYVHKINFYGWYRQAPGKEREKVAHISIGDQTDYADSAKGRFTISRDESKNTVYLQMNSLRPEDTAAYYCRALSRIWPYDYWGQGTLVTVSSGGGGSEVQLVESGGGVVQPGGSLRLSCAASGFTFSSFAMTWVRRPPGKGLEWVATITNAGVTSYADSVKGRFTISRDNAKNTLYLQMNSLRPEDTALYICANARRTGPRAPTDIGSYRGQGTLVTVSSGGGGSGGGGSGGGGSGGGGSEVQLVESGGGVVQPGGSLRLSCAASGFTFRSFGMSWVRQAPGKGPEWVSSISGSGSDTLYADSVKGRFTISRDNSKNTLYLQMNSLRPEDTALYYCTIGGSLSRSSQGTLVTVSSA
B3: A022600175 (other)
chain: DVQLVESGGGVVQPGGSLRLSCVASGYVHKINFYGWYRQAPGKEREKVAHISIGDQTDYADSAKGRFTISRDESKNTVYLQMNSLRPEDTAAYYCRALSRIWPYDYWGQGTLVTVSSGGGGSEVQLVESGGGLVQPGGSLRLSCVASGFTFSSFAMTWVRRPPGKGLEWVATITNGGVTSYRDSVKGRFTISRDNAKNTLYLEMTSLNPEDTAVYICANARRTGPRAPTDIGSYRGQGTLVTVSSGGGGSGGGSEVQLVESGGGLVQPGGSLRLSCVASGSIFRSVFSSSTMEWYRQPPGKKRELVARIAPGDGTNYGALYADSVKGRFTISRDDAKKTVDLQMNSLKPEDTGVYFCASGVAWGQGTLVTVSSGGGGSGGGGSGGGGSGGGGSGGGGSGGGGSGGGGSEVQLVESGGGVVQPGGSLRLSCAASGFTFRSFGMSWVRQAPGKGPEWVSSISGSGSDTLYADSVKGRFTISRDNSKNTLYLQMNSLRPEDTALYYCTIGGSLSRSSQGTLVTVSSA
B4: A022600425 (other)
chain: DVQLVESGGGVVQPGGSLRLSCVASGYVHKINFYGWYRQAPGKEREKVAHISIGDQTDYADSAKGRFTISRDESKNTVYLQMNSLRPEDTAAYYCRALSRIWPYDYWGQGTLVTVSSGGGGSEVQLVESGGGVVQPGGSLRLSCAASGSIFRSVFSSSTMEWYRQAPGKKRELVARIAPGEGTYYGALYADSVKGRFTISRDNAKNTVYLQMNSLRPEDTALYYCASGVAWGQGTLVTVSSGGGGSGGGGSGGGGSGGGGSEVQLVESGGGVVQPGGSLRLSCAASGFTFSSFAMTWVRRPPGKGLEWVATITNAGVTSYADSVKGRFTISRDNAKNTLYLQMNSLRPEDTALYICANARRTGPRAPTDIGSYRGQGTLVTVSSGGGGSGGGSEVQLVESGGGVVQPGGSLRLSCAASGFTFRSFGMSWVRQAPGKGPEWVSSISGSGSDTLYADSVKGRFTISRDNSKNTLYLQMNSLRPEDTALYYCTIGGSLSRSSQGTLVTVSSA
B5: A022600426 (other)
chain: DVQLVESGGGVVQPGGSLRLSCVASGYVHKINFYGWYRQAPGKEREKVAHISIGDQTDYADSAKGRFTISRDESKNTVYLQMNSLRPEDTAAYYCRALSRIWPYDYWGQGTLVTVSSGGGGSEVQLVESGGGVVQPGGSLRLSCAASGSIFRSVFSSSTMEWYRQAPGKKRELVARIAPGEGTYYGALYADSVKGRFTISRDNAKNTVYLQMNSLRPEDTALYYCASGVAWGQGTLVTVSSGGGGSGGGGSGGGGSGGGGSEVQLVESGGGVVQPGGSLRLSCAASGFTFSSFAMTWVRRPPGKGLEWVATITNKGVTSYADSVKGRFTISRDNAKNTLYLQMNSLRPEDTALYICANARRTGPRAPTDIGSYRGQGTLVTVSSGGGGSGGGSEVQLVESGGGVVQPGGSLRLSCAASGFTFRSFGMSWVRQAPGKGPEWVSSISGSGSDTLYADSVKGRFTISRDNSKNTLYLQMNSLRPEDTALYYCTIGGSLSRSSQGTLVTVSSA
B6: A022600169 (other)
chain: DVQLVESGGGLVQPGGSLRLSCVASGFTFSSFAMTWVRRPPGKGLEWVATITNGGVTSYRDSVKGRFTISRDNAKNTLYLEMTSLNPEDTAVYICANARRTGPRAPTDIGSYRGQGTLVTVSSGGGGSEVQLVESGGGVVQPGGSLRLSCVASGYVHKINFYGWYRQAPGKEREKVAHISIGDQTDYADSAKGRFTISRDESKNTVYLQMNSLRPEDTAAYYCRALSRIWPYDYWGQGTLVTVSSGGGGSEVQLVESGGGLVQPGGSLRLSCVASGSIFRSVFSSSTMEWYRQPPGKKRELVARIAPGDGTNYGALYADSVKGRFTISRDDAKKTVDLQMNSLKPEDTGVYFCASGVAWGQGTLVTVSSGGGGSGGGGSGGGGSGGGGSGGGGSGGGGSGGGGSEVQLVESGGGVVQPGGSLRLSCAASGFTFRSFGMSWVRQAPGKGPEWVSSISGSGSDTLYADSVKGRFTISRDNSKNTLYLQMNSLRPEDTALYYCTIGGSLSRSSQGTLVTVSSA
B7: A022600179 (other)
chain: DVQLVESGGGVVQPGGSLRLSCVASGYVHKINFYGWYRQAPGKEREKVAHISIGDQTDYADSAKGRFTISRDESKNTVYLQMNSLRPEDTAAYYCRALSRIWPYDYWGQGTLVTVSSGGGGSEVQLVESGGGLVQPGGSLRLSCVASGFTFSSFAMTWVRRPPGKGLEWVATITNGGVTSYRDSVKGRFTISRDNAKNTLYLEMTSLNPEDTAVYICANARRTGPRAPTDIGSYRGQGTLVTVSSGGGGSGGGSEVQLVESGGGVVQPGGSLRLSCAASGFTFRSFGMSWVRQAPGKGPEWVSSISGSGSDTLYADSVKGRFTISRDNSKNTLYLQMNSLRPEDTALYYCTIGGSLSRSSQGTLVTVSSA
B8: A022600170 (other)
chain: DVQLVESGGGVVQPGGSLRLSCVASGYVHKINFYGWYRQAPGKEREKVAHISIGDQTDYADSAKGRFTISRDESKNTVYLQMNSLRPEDTAAYYCRALSRIWPYDYWGQGTLVTVSSGGGGSEVQLVESGGGLVQPGGSLRLSCVASGFTFSSFAMTWVRRPPGKGLEWVATITNGGVTSYRDSVKGRFTISRDNAKNTLYLEMTSLNPEDTAVYICANARRTGPRAPTDIGSYRGQGTLVTVSSGGGGSGGGGSGGGGSGGGGSGGGGSGGGGSGGGGSEVQLVESGGGLVQPGGSLRLSCVASGSIFRSVFSSSTMEWYRQPPGKKRELVARIAPGDGTNYGALYADSVKGRFTISRDDAKKTVDLQMNSLKPEDTGVYFCASGVAWGQGTLVTVSSGGGGSGGGSEVQLVESGGGVVQPGGSLRLSCAASGFTFRSFGMSWVRQAPGKGPEWVSSISGSGSDTLYADSVKGRFTISRDNSKNTLYLQMNSLRPEDTALYYCTIGGSLSRSSQGTLVTVSSA
B9: A022600427 (other)
chain: DVQLVESGGGVVQPGGSLRLSCVASGYVHKINFYGWYRQAPGKEREKVAHISIGDQTDYADSAKGRFTISRDESKNTVYLQMNSLRPEDTAAYYCRALSRIWPYDYWGQGTLVTVSSGGGGSEVQLVESGGGVVQPGGSLRLSCAASGFTFSSFAMTWVRRPPGKGLEWVATITNAGVTSYADSVKGRFTISRDNAKNTLYLQMNSLRPEDTALYICANARRTGPRAPTDIGSYRGQGTLVTVSSGGGGSGGGSEVQLVESGGGVVQPGGSLRLSCAASGSIFRSVFSSSTMEWYRQAPGKKRELVARIAPGEGTYYGALYADSVKGRFTISRDNAKNTVYLQMNSLRPEDTALYYCASGVAWGQGTLVTVSSGGGGSGGGSEVQLVESGGGVVQPGGSLRLSCAASGFTFRSFGMSWVRQAPGKGPEWVSSISGSGSDTLYADSVKGRFTISRDNSKNTLYLQMNSLRPEDTALYYCTIGGSLSRSSQGTLVTVSSA

Experiments:
Test in all cases: cell-based or functional assay
[1] = target: T1, human GPC3 on tumor cell lines (HepG2, Huh-7, NCI-H661, MKN-45, NCI-H23, BxPC-3, NCI-H292) (human, UniProt P51654 25-554)
[2] = target: T1, human GPC3 on tumor cell lines (HepG2, …); remark: listed apart in the source
[3] = target: T1, human GPC3 on tumor cell lines (HepG2, …); remark: listed apart in the source
[4] = target: T1, human GPC3 on tumor cell lines (HepG2, …); remark: listed apart in the source

Row | Binder | IC50 (M) BxPC-3, xCELLigence human TDC assay [2] [M] | IC50 (M) HepG2, xCELLigence human TDC assay [2] [M] | IC50 (M) Huh-7, xCELLigence human TDC assay [2] [M] | IC50 (M) NCI-H661, xCELLigence human TDC assay [2] [M] | HepG2 on Incucyte IC50 [3] [nM] | HepG2 on Incucyte Max % killing [3] [%] | Huh7 on xCELLigence IC50 [3] [nM] | Huh7 on xCELLigence Max % killing [3] [%] | IC50 (M) NCI-H23, xCELLigence human TDC assay [2] [M] | further results
1 | B1 |  |  |  |  |  |  |  |  |  | HepG2 on Incucyte IC50 [1]: 0.601 nM; HepG2 on Incucyte Max % killing [1]: 81%; Huh7 on xCELLigence IC50 [1]: 0.067 nM; Huh7 on xCELLigence Max % killing [1]: 90%
2 | B2 | > 1e-07 | 3.82e-10 | 1.53e-09 | 6.18e-10 |  |  |  |  |  | 
3 | B3 |  |  |  |  | 0.527 | 96 | 0.0586 | 99 |  | HepG2 on Incucyte IC50 [4]: 0.527 nM; HepG2 on Incucyte Max % killing [4]: 96%; Huh7 on xCELLigence IC50 [4]: 0.0586 nM; Huh7 on xCELLigence Max % killing [4]: 99%
4 | B4 | > 1e-07 | 1.11e-10 | 1.58e-10 | 2.59e-10 |  |  |  |  | > 1e-07 | 
5 | B5 | > 1e-07 | 1.25e-10 | 1.09e-10 | 2.64e-10 |  |  |  |  | > 1e-07 | 
6 | B6 |  |  |  |  |  |  |  |  |  | HepG2 on Incucyte IC50 [1]: 0.641 nM; HepG2 on Incucyte Max % killing [1]: 81%; Huh7 on xCELLigence IC50 [1]: 1.02 nM; Huh7 on xCELLigence Max % killing [1]: 61%
7 | B7 |  |  |  |  | 2.92 | 76 | 6.13 | 66 |  | 
8 | B8 |  |  |  |  | 0.319 | 97 | 0.186 | 103 |  | 
9 | B9 | > 1e-07 | 1.03e-10 | 1.37e-10 | 1e-10 |  |  |  |  | > 1e-07 | 
